B1: 400-17 (ssRNA)
RNA: GGGAGCUCAGAAUAAACGCUCAAGUUCUGAGAACUCUCCCCAUUCUAGUGUGCUUCGACAUGAGGCCCGGAUCCGGC
B2: 400-23 (ssRNA)
RNA: GGGAGCUCAGAAUAAACGCUCAACUGAGAACUCUCCCGCUCGCAUUAUUAACCUUCGACAUGAGGCCCGGAUCCGGC

Columns and labels:
Details in all cases: tags: processed NC, 55 aa, from pBH10, gift of Agouron Pharmaceutical; label: 5'-32P
[1] = target: T1, HIV-1 nucleocapsid p7 (NC) (Human immunodeficiency virus type 1 …, UniProt P03347 P03347:378-432); experiment: inhibition; about 50% inhibition of NC-stimulated annealing of con+/con- DNA, 10 nM NC
Procedure: (§1) This buffer was used and the concentration of each oligo was reduced keeping their action time constant to find an oligo concentration that would give less than 10% duplex formation under these conditions. The conditions in the reaction used for inhibition assay was as follows. 400 pM each DNA oligo (con+/−) was mixed with 10 nM nucleocapsid for 6 minutes at 37° C. in binding buffer containing 200 mM NaCl in a reaction volume of 30 µl. After this time, reactions were stopped by placing on ice and loaded on gel after 2 minutes. Gels were run at 250 volts for 3.5 hours. In reactions where random RNA was added as inhibitor, the concentrations range from 6500 nM to 9 nM. Where selected RNAs were used, the range was 720 nM to 0.11 nM.

[2] = target: T1, HIV-1 nucleocapsid p7 (NC); experiment: filter; 10 mM NaOAc pH 5.3, 0.1 mM ZnCl2, 5 mM MgCl2, 100 mM NaCl, 37 C
Procedure: Binding assays were done by adding 5 μl of HIV-1 p7 nucleocapsid protein, at the appropriate concentrations (i.e., ranging from 6×10^-10 to 5×10^-8), to 45 μl of binding buffer (10 mM NaOAc (pH 5.3), 2 mM 2-mercaptoethanol, 0.1 mM ZnCl_2, 5 mM MgCl_2, 100 mM NaCl) on ice, then adding 80,000 cpm of kinased RNA (<200 fmoles) in a volume of 3 to 4 μl. This mix was incubated at 37° C. for 20 minutes. The reactions were then passed over nitrocellulose filters, which were pre-equilibrated in the same buffer, and washed five times with one milliliter each time using a 50 mM Tris-Cl pH 7.5 solution. Filters were dried and counted in cocktail. The protein used in these experiments were frozen and thawed only once. Each binding curve consisted of seven points and each point is the average of duplicates.
The dissociation constants for 12 of the 14 RNA species were determined by nitrocellulose filter binding. These experiments were carried out in duplicates. All binding curves were done using γ-^32P labeled RNA in binding buffer containing 100 mM NaCl.

[3] = target: T1, HIV-1 nucleocapsid p7 (NC); experiment: inhibition; inhibition of NC-stimulated annealing of con+/con- DNA, 10 nM NC
Procedure: as §1

Row | Binder | IC50 [1] [nM] | Kd [2] [nM] | Ki [3] [nM]
1 | B1 | ~0.5 | 2 | –
2 | B2 | – | 6 | 3

Reference: US5635615, “High affinity HIV nucleocapsid nucleic acid ligands” (NeXstar Pharmaceuticals, Inc.)
